Measured values taken from patent US20260167959A1, “APTAZYME-BASED REGULATABLE GENE EXPRESSION SYSTEMS” (REJUVENATE BIO INC, priority 2022, published 2026).

The molecules below were run on Renilla luciferase RNA (assay: Barcoded aptazyme variant library screen: un-cleaved Renilla luciferase RNA by barcode read counts, HEK293-T cells). Conditions: un-cleaved Renilla luciferase RNA, HEK293-T cells cultured with 1 mM theophylline (ON) over without theophylline (OFF); barcode read counts, triplicate.
Type: cell-based
Method in brief: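 Barcode sequencing of cDNA versus DNA, normalized per aptazyme, gave the un-cleaved Renilla luciferase RNA fraction and fold-change with versus without theophylline (triplicates). Library: T3H48 ribozyme with one of seven theophylline aptamer variants inserted at each position, placed in the Renilla 3′ UTR of a dual-luciferase vector.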

Molecule | Fold change in RNA expression between the ON state and the OFF state
RA195 (nucleic acid, expressed or natural sequence) DNA: GCGCGTCGAGAATACCAGCATCGTCTTGATGCCCTTGGAAGTCTCGCCTGGATTCGCGGAAACGCGTACATCCAGCTGACGAGTCCCAAATAGGACGAAACGCGC | 1.2 fold
RA184 (nucleic acid, expressed or natural sequence) DNA: GAGAATACCAGCATCGTCTTGATGCCCTTGGAAGTCTCGCGTCCTGGATTCGCGGAAACGCGTACATCCAGCTGACGAGTCCCAAATAGGACGAAACGCGC | 1.3 fold
RA182 (nucleic acid, expressed or natural sequence) DNA: GCGCGTCCTGGATTCGCGGAAACGCGGAGAATACCAGCATCGTCTTGATGCCCTTGGAAGTCTCTACATCCAGCTGACGAGTCCCAAATAGGACGAAACGCGC | 1.3 fold
RA194 (nucleic acid, expressed or natural sequence) DNA: GCGCGTCCTGGATTCGCGGAAACGCGTACATCCAGCTGACGAGAATACCAGCATCGTCTTGATGCCCTTGGAAGTCTCGAGTCCCAAATAGGACGAAACGCGC | 1.2 fold
RA192 (nucleic acid, expressed or natural sequence) DNA: GCGCGTCCTGGATTCGCGGAAACGCGTACATCCAGCTGACGAGTCCCAAATGGAATACCAGCATCGTCTTGATGCCCTTGGAAGTCCAGGACGAAACGCGC | 1.2 fold
RA202 (nucleic acid, expressed or natural sequence) DNA: GCGCGTCCTGGATAGTGATACCAGCATCGTCTTGATGCCCTTGGCAGCACTTCGCGGAAACGCGTACATCCAGCTGACGAGTCCCAAATAGGACGAAACGCGC | 1.2 fold
RA204 (nucleic acid, expressed or natural sequence) DNA: GCGCGTCCCGGAATACCAGCATCGTCTTGATGCCCTTGGAAGTCCGTGGATTCGCGGAAACGCGTACATCCAGCTGACGAGTCCCAAATAGGACGAAACGCGC | 1.2 fold
RA190 (nucleic acid, expressed or natural sequence) DNA: GCGCGTCCTGGATTCGCGAGTGATACCAGCATCGTCTTGATGCCCTTGGCAGCACTGAAACGCGTACATCCAGCTGACGAGTCCCAAATAGGACGAAACGCGC | 1.2 fold
RA203 (nucleic acid, expressed or natural sequence) DNA: GCGCGTCCTGGATTCGCGGAAACGCGTACATCCAGCTGACGAGTCCCAAATAGGAAGAATACCAGCATCGTCTTGATGCCCTTGGAAGTCTCGAAACGCGC | 1.2 fold
RA187 (nucleic acid, expressed or natural sequence) DNA: GCGCGTCCTGGATTCGCGGAAACGCGTACATCCAGCTGACGAGTCCCAAATAGGACGAAACGCGCGAGAATACCAGCATCGTCTTGATGCCCTTGGAAGTCTC | 1.3 fold
RA181 (nucleic acid, expressed or natural sequence) DNA: GCGCGCCGGAATACCAGCATCGTCTTGATGCCCTTGGAAGTCCGGTCCTGGATTCGCGGAAACGCGTACATCCAGCTGACGAGTCCCAAATAGGACGAAACGCGC | 1.3 fold
RA018 (nucleic acid, expressed or natural sequence) DNA: GCGCGTCCTGGATTCGCGGAAACGCGTACATCCAGCTGACGAGTCCCAAAGTGATACCAGCATCGTCTTGATGCCCTTGGCAGCACTATAGGACGAAACGCGC | 2.8 fold
RA207 (nucleic acid, expressed or natural sequence) DNA: GCGCGTCCTGGATTCGCGGAAACGCGTACATCCAGCTGACGAGTCCCAAGAGAATACCAGCATCGTCTTGATGCCCTTGGAAGTCTCATAGGACGAAACGCGC | 1.2 fold
RA196 (nucleic acid, expressed or natural sequence) DNA: GCGCGTCCTGGATTCGCGGAAACGCGTACATCCAGCTGACGAGTCCCAAATGAGAATACCAGCATCGTCTTGATGCCCTTGGAAGTCTCAGGACGAAACGCGC | 1.2 fold
RA206 (nucleic acid, expressed or natural sequence) DNA: GCGCGTCCTGGATTCGCCGGAATACCAGCATCGTCTTGATGCCCTTGGAAGTCCGGCGGAAACGCGTACATCCAGCTGACGAGTCCCAAATAGGACGAAACGCGC | 1.2 fold
RA199 (nucleic acid, expressed or natural sequence) DNA: GCGCGTCCTGGATTCGCGGAAACAGTGATACCAGCATCGTCTTGATGCCCTTGGCAGCACTGCGTACATCCAGCTGACGAGTCCCAAATAGGACGAAACGCGC | 1.2 fold
RA183 (nucleic acid, expressed or natural sequence) DNA: GCGCGTCCTGGATTCGCGGAAACGCGTACATCCAGCTGAGAATACCAGCATCGTCTTGATGCCCTTGGAAGTCTACGAGTCCCAAATAGGACGAAACGCGC | 1.3 fold
RA200 (nucleic acid, expressed or natural sequence) DNA: GCGCGTCCTGGATTCGCGGAAACGCGTACATCCGAGAATACCAGCATCGTCTTGATGCCCTTGGAAGTCTCGCAGCTGACGAGTCCCAAATAGGACGAAACGCGC | 1.2 fold
RA186 (nucleic acid, expressed or natural sequence) DNA: GCGCGTCCTGGATTCGCGCGAGAATACCAGCATCGTCTTGATGCCCTTGGAAGTCTCGGAAACGCGTACATCCAGCTGACGAGTCCCAAATAGGACGAAACGCGC | 1.3 fold
RA019 (nucleic acid, expressed or natural sequence) DNA: GCGCGTCCTGGATTCGCGGAAACGCGTACATCCAGCTGACGGGAATACCAGCATCGTCTTGATGCCCTTGGAAGTCCAGTCCCAAATAGGACAAAACGCGC | 2.7 fold
RA185 (nucleic acid, expressed or natural sequence) DNA: GCGCGTCCTGGATTCGCGGAAACGCGTACATCCAGCTGACGAGTCCCAAATACGGAATACCAGCATCGTCTTGATGCCCTTGGAAGTCCGGGACGAAACGCGC | 1.3 fold
RA188 (nucleic acid, expressed or natural sequence) DNA: GCGCGTCCTGGATTCGCGGAAACGCGTACATCCAGCTGACGAGTCCCAAATAGGACGAAGAGAATACCAGCATCGTCTTGATGCCCTTGGAAGTCTCACGCGC | 1.2 fold
RA201 (nucleic acid, expressed or natural sequence) DNA: GCGCGTCCTGGATTCGCGGAAACGCGAGAATACCAGCATCGTCTTGATGCCCTTGGAAGTCTCGCGTACATCCAGCTGACGAGTCCCAAATAGGACGAAACGCGC | 1.2 fold
RA197 (nucleic acid, expressed or natural sequence) DNA: GCGCGTCCTGGATTCGCGGAAACGCGTACATCCAGCTGACGAGTCCCAAATAGGACAAAACGCGC | 1.2 fold
RA205 (nucleic acid, expressed or natural sequence) DNA: GCGCGTCCTGGATTCGCGGAAACGCGTACATCCAGCTGACGAGTCCCAAATAGGACGAAACGCGGAATACCAGCATCGTCTTGATGCCCTTGGAAGTCCGC | 1.2 fold
RA193 (nucleic acid, expressed or natural sequence) DNA: CCGGAATACCAGCATCGTCTTGATGCCCTTGGAAGTCCGGGCGCGTCCTGGATTCGCGGAAACGCGTACATCCAGCTGACGAGTCCCAAATAGGACGAAACGCGC | 1.2 fold
RA191 (nucleic acid, expressed or natural sequence) DNA: GCGCGTCCTGGATTCGCGGAACGAGAATACCAGCATCGTCTTGATGCCCTTGGAAGTCTCGACGCGTACATCCAGCTGACGAGTCCCAAATAGGACGAAACGCGC | 1.2 fold
RA189 (nucleic acid, expressed or natural sequence) DNA: GCGCGTCCTGGATTCGGAATACCAGCATCGTCTTGATGCCCTTGGAAGTCCGCGGAAACGCGTACATCCAGCTGACGAGTCCCAAATAGGACGAAACGCGC | 1.2 fold
RA198 (nucleic acid, expressed or natural sequence) DNA: GCGCGTCCTGAGAATACCAGCATCGTCTTGATGCCCTTGGAAGTCTGATTCGCGGAAACGCGTACATCCAGCTGACGAGTCCCAAATAGGACGAAACGCGC | 1.2 fold
